First the molecules themselves.
B1: 4-O-(Ac-4-trans-L-HypSSChgQSS-(d)-Pro)-(dAc)-VIN (peptide)
peptide: XSSXQSSP
modifications: N-terminal acetyl; 4-trans-L-hydroxyproline at 1; Chg at 4; D-Pro at 8, esterified to the 4-O of des-acetylvinblastine
B2: 4-O-(Ac-4-trans-L-HypSSChgQ-S(dS)-4-trans-L-Hyp)-dAc-VIN (peptide)
peptide: XSSXQSXX
modifications: N-terminal acetyl; 4-trans-L-hydroxyproline at 1 and 8; Chg at 4; D-Ser at 7; C-terminus esterified to the 4-O of des-acetylvinblastine
B3: 4-O-[(2-OH)Ac-SChgQSS-Sar]-dAc-VIN (peptide)
peptide: XXQSSX
modifications: N-terminal hydroxyacetyl ((2-OH)Ac); Chg at 2; sarcosine at 6, esterified to the 4-O of des-acetylvinblastine

For this experiment, the target named is free prostate specific antigen (PSA) (human, UniProt P07288 25-261). Description: cell-based or functional assay.
Take B1: the “Time to 50% Substrate Cleavage by York PSA (Min); cell gives percent cleaved at 1 hour” value was determined as 34 % cleaved at 1 hour. Regarding B2, the “Time to 50% Substrate Cleavage by York PSA (Min); cell gives percent cleaved at 1 hour” value was 12 % cleaved at 1 hour.

Take B3: the “Time to 50% Substrate Cleavage by York PSA (Min); cell gives percent cleaved at 1 hour” value was 4 % cleaved at 1 hour.

The record behind these values is patent US20040081659A1 (MERCK, published 2004).
